Earlier results on 1 substance are cited in PMC9363672.

The data set has as its target syndecan 3 (Homo sapiens) (UniProt O75056).
UniProt O75056, sequence (O75056 whole entry): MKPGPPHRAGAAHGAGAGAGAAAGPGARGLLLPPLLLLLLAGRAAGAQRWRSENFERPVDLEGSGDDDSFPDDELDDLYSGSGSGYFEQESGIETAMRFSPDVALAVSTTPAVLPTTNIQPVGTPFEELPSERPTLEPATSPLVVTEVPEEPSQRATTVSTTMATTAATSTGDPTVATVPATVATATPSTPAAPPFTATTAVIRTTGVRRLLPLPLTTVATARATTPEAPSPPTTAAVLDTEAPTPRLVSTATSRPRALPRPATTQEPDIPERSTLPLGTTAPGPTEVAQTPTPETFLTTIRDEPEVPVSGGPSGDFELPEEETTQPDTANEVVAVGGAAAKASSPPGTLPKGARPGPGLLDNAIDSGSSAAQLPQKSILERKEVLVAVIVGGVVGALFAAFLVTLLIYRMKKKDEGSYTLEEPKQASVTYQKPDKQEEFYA

For the substance pleiotrophin (from UniProt P21246), the Kd was 6 nM.
